Test results from patent US20260055188A1 (SHENGHE CHINA BIOPHARMACEUTICAL, published 2026).

What was measured:
[1] = biological target: T1, Human-TNFR2-His (manufacturer: SINO, CAT: 10417-H08H) (human, UniProt P20333 23-257); assay: ELISA: Human-TNFR2-His coated (0.3 µg/mL), antibody titrated, goat anti-human IgG Fc detection, OD450 (Example 10)
T1 construct: Bought protein; also called human TNFR2 protein; TNFR2 protein; not shown: His tag
T1 sequence (looked up): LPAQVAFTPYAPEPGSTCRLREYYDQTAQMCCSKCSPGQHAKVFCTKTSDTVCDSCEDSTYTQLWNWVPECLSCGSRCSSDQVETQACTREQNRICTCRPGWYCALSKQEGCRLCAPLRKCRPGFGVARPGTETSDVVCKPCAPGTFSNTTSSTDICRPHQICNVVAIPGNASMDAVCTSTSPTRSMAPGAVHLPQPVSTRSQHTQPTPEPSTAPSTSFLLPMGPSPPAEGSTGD
Protocol: Human-TNFR2-His (manufacturer: SINO, CAT: 10417-H08H, LOT: LC12SE2902) was diluted to 0.3 μg/mL with a coating solution (1×PBS, pH7.4), and coated into a 96-well ELISA plate at 100 μL/well overnight at 4° C. The coating solution was poured off. Each well was washed with 1×PBST at 300 μL, washed 4 times with a plate washer, and patted dry on a flat paper. It was blocked with 3% skim milk powder at 300 μL/well, and incubated at 37° C. for 1 h. The blocking solution was poured off, washed 4 times with a plate washer, and patted dry on a flat paper. Negative control and positive control were set up. […] The positive control and antibody were diluted to 10 μg/mL with 3% skim milk powder as the starting concentration, and then diluted by 3-fold gradient (11 gradients in total). A blank well was set up and only the diluent was added. It was incubated at 37° C. for 1 h at 100 μL/well. The liquid in the well was discarded, washed 4 times with a plate washer, and patted dry on a flat paper. Goat anti-human IgG Fc was diluted with 3% skim milk powder at 1:20000, and incubated at 37° C. for 1 h at 100 μL/well. It was washed 6 times with a plate washer, and patted dry on a flat paper. TMB color developing solution was added at 100 μL/well, and wrapped with aluminum foil. Color development was performed at 37° C. in the dark for 8 min. […] Readings were taken at 450 nm on an ELISA reader.

[2] = biological target: T1, Human-TNFR2-His (manufacturer: SINO, …); assay: BLI, antibody on AHC sensor, 100 nM human-TNFR2-His in solution
Protocol: The AHC sensor was soaked in 0.02% PBST (0.02% Tween 20, pH 7.4, 1×PBS) as a buffer for 600 s to remove the sucrose covering the sensor surface. The AHC sensor was equilibrated with 0.02% PBST (0.02% Tween 20, pH 7.4, 1×PBS) as a buffer for 60 s, the antibody in the sample plate was solidified for 300 s, and the secondary equilibration buffer was used for 180 s. 100 nM human-TNFR2-His (manufacturer: SINO, CAT: 10417-H08H, LOT: LC12SE2902) protein was bound to the antibody for 300 s and then dissociated for 600 s. After dissociation, 10 mM glycine (pH 2.0) was used as a regeneration buffer for 30 s. The sensor was regenerated with 10 mM glycine (pH 2.0).

EC50 (read off the curve) [1]: ~0.05 nM
Kd [2]: 1.61 nM
koff [2]: 0.000427 s⁻¹
kon [2]: 266000 M⁻¹ s⁻¹
B1: Positive control 2 (variable region SEQ ID NO: 41) (VHH)
VHH: EVQLVESGGGLVQPGGSLRLSCAASGSRLDYYAVAWFRQAPGKEREEVSCITYSGGSTNYAESVKGRFTISRDNSKNTLYLQMNSLRAEDTAVYYCTTEPYGSSCPLSGYDTWGQGTLVTVSS
notes: not shown: it was loaded on an AHC (anti-human Fc) sensor
